Measured values published in article PMC3708822.

Legend:
[1] = biological target: GST-RT (HIV-1 (NL4-3)); assay: pull-down; 5 ug GST-tagged proteins on glutathione sepharose 4B beads incubated 1 hour at 4°C with normalized clarified bacterial lysates of 6His-IN in 20 mM HEPES-KOH pH 8.0, 5 mM DTT, 0.1% IGEPAL; washes with 200 mM NaCl, 0.5% IGEPAL; Western blot, densitometry relative to WT
[2] = biological target: GST-SAP18 (UniProt O00422); assay: as above
[3] = biological target: GST-INI1 (UniProt Q12824); assay: pull-down; 5 ug GST-INI1 on glutathione sepharose 4B beads incubated 1 hour at 4°C with clarified 293 T whole cell lysates normalized for YFP-IN levels; Western blot, densitometry, binding relative to YFP-WT
[4] = biological target: GST-SAP18 (UniProt O00422); assay: GST pull-down, Western blot quantitation; conditions: 5μg of GST-tagged proteins were used for each pull-down reaction; parent: est. 1.0; read off a plot
[5] = biological target: GST-INI1 (UniProt Q12824); assay: pull-down; in vitro binding of His6-IN with GST-INI1; data not shown

Chain of GST-SAP18 (O00422 whole entry): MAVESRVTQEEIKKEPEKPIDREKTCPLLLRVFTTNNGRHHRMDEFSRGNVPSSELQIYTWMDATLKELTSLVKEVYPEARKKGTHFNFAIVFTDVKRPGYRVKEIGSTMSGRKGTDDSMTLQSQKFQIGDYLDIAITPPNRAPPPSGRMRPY
Chain of GST-INI1 (Q12824 whole entry): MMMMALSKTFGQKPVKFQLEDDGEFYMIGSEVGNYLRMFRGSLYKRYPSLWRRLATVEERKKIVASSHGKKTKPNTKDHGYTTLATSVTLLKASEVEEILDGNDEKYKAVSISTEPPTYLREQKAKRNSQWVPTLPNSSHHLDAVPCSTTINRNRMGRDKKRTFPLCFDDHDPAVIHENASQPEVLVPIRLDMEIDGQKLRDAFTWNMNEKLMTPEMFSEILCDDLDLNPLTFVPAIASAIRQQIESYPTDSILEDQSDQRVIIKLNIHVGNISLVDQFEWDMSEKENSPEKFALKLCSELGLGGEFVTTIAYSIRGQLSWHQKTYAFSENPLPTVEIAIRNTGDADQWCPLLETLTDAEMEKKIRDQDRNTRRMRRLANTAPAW

Substance | % binding to INI1 relative to wild type [3] [%] | ratio to parent [4] | other results
His6-tagged IN Q137R (natural protein) |  |  | % RT binding compared to WT [1]: 45%; fold decrease in binding relative to WT [2]: 4 fold
YFP-IN D202G (natural protein) | 32 |  | 
YFP-IN S147G (natural protein) | 77 |  | 
YFP-IN H12Y (natural protein) | 20.6 |  | 
YFP-IN K71R (natural protein) | 46 |  | 
His6-tagged WT IN K111E |  | 1.3 | 
YFP-WT IN (natural protein) | 100 |  | 
YFP-IN Q137R (natural protein) | 10 |  | 
His6-tagged WT IN D202G |  | 0.84 | 
His6-tagged WT IN K71R |  | 1.1 | 
His6-tagged WT IN S147G |  | 1 | 
His6-tagged IN D202G (natural protein) |  |  | % RT binding compared to WT [1]: 80%
His6-tagged IN K111E (natural protein) |  |  | % binding compared to His6-WT [5]: 60%
